1 molecule from article PMC10802294 (bioRxiv, 2024) can be followed below.

Side chains are listed from the residue outwards. Ends that are not written are not given here. * marks the point of attachment. Biotin = O=C1N[C@H]2[C@H](CS[C@H]2CCCCC(=O)*)N1; RADP = not defined here; Aoa = not defined here

In assay [1] the target is SARS-CoV-2 Mac1 protein (WT) (SARS-CoV-2, UniProt P0DTC1 1023-1197). In words: AlphaScreen or HTRF. (In general: In Alpha technology, singlet oxygen from a donor bead excites a nearby acceptor bead.)
For assay [2], the target named is MERS-CoV Mac1 protein (WT) (MERS-CoV, UniProt K9N638 1110-1273). In words: AlphaScreen or HTRF.
MERS-CoV Mac1 protein (WT), sequence (K9N638 1110-1273): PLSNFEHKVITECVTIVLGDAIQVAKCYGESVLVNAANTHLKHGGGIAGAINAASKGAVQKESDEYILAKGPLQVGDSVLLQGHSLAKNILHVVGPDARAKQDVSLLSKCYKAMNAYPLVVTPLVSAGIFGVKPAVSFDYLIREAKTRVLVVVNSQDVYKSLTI

B1: 10 amino acid biotinylated and ADP-ribosylated peptide [ARTK(Bio)QTARK(Aoa-RADP)S] (peptide)
peptide: ARTK(Biotin)QTARK([Aoa-RADP])S
modifications: reading uncertain
For the molecule B1, the binding result in assay [1] and in assay [2] was “binds” in each case.
